Assays:
ECFCs [1] = assay: Actin and microtubule disruption studies, ECFCs on fibrin microfibers; type: cell-based, Human; details: for actin and microtubule organization, respectively / wrapping organization of the deposited ECM molecules compared to control cultures: ECFCs seeded on nanopatterned fibrin microfibers; for average angle of ECM orientation or variance of all angles, vs no drug: drug added 24 h after ECFC seeding on fibrin microfibers, 24 and 48 hrs of treatment
Method: The cell areas and perimeters were measured by fitting an ellipse to each cell using the LSM 510 software. Cytoskeletal alignment angle was calculated by measuring the angle between the long axis of each ellipse and the longitudinal axis of the microfiber, found by drawing a line at the edges of the microfiber in its image projection. ECM angle of orientation was measured using the LSM 510 software by drawing a line following the ECM deposition and finding the angle between the line and the longitudinal axis of the microfiber. Graphs were plotted with 5-95% confidence intervals. Unpaired two-tailed Welch-corrected t-tests were performed where appropriate (GraphPad Prism® 5.01, GraphPad Software, San Diego, Calif.). Significance levels were determined between samples examined and were set at *p<0.05, **p<0.01, and ***p<0.001.
Cytochalasin D or nocodazole were dissolved in DMSO (Table 1). ECFCs were cultured on Petri dishes (control) or fibrin microfibers in ECFC media with 50 ng/mL of VEGF (Pierce, Rockford, Ill., USA) supplemented with either […] cytochalasin D or […] nocodazole, from either day 0 or day 1 after seeding. F-actin or a-tubulin organization and ECM deposition was analyzed after 1, 2, or 3 days of treatment. Final concentration of DMSO in cell culture medium was kept at 0.1% (v/v). Controls were treated with DMSO alone at the same concentration.

fibrin microfibers = assay: Plasmin treatment: degradation of fibrin microfibers without cells; type: biochemical; details: serum-free media
Method: (§1) Fibrin microfibers with or without cells were treated with 15, 1, 0.25, and 0.1 CU/mL plasmin from human plasma (Athens Research and Technology, Athens, Ga.) in DMEM (Life Technologies, Grand Island, N.Y.) for 1, 6, 12, and 24 hrs respectively in a humidified incubator at 37° C. in a 5% CO2 atmosphere. Samples were imaged immediately after treatment.
The fibrin microfiber core was degraded after endothelial cell (EC) layer formation while maintaining both cellular viability and intact ECM organization. Fibrin microfibers without cells were treated with different concentrations of plasmin.

ECFCs [2] = assay: Live/Dead assay of ECFCs after plasmin treatment; type: cell-based; details: for cell viability: confluent ECFCs, data not shown; for live cells: confluent ECFCs in 2D, serum-free
Method: as §1
ECFCs cultured in 2D and treated with plasmin were incubated with 2 μM calcein AM and 4 μM ethidium homodimer (Invitrogen) in PBS for 30 min at 37° C. and 5% CO2. Samples were imaged immediately after and the number of live and dead cells was counted using ImageJ (NIH, Bethesda, Md.).

| Molecule | actin and microtubule organization, respectively (ECFCs [1]) | wrapping organization of the deposited ECM molecules compared to control cultures (ECFCs [1]) | average angle of ECM orientation or variance of all angles, vs no drug (ECFCs [1]) | time in which plasmin degraded the microfibers (fibrin microfibers; 0.1 CU/mL plasmin) [h] | time in which plasmin degraded the microfibers (fibrin microfibers; 0.25 CU/mL plasmin) [h] | time in which plasmin degraded the microfibers (fibrin microfibers; 1 CU/mL plasmin) [h] | time in which plasmin degraded the microfibers (fibrin microfibers; 15 CU/mL plasmin) | cell viability (ECFCs [2]; 1 hr treatment (15 CU/mL plasmin)) | cell viability (ECFCs [2]; 6 hr treatment (1 CU/mL plasmin)) | live cells (ECFCs [2]; 12 hr treatment (0.25 CU/mL plasmin)) [%] | live cells (ECFCs [2]; 24 hr treatment (0.1 CU/mL plasmin)) [%] |
| --- | --- | --- | --- | --- | --- | --- | --- | --- | --- | --- | --- |
| C=C1[C@@H](C)[C@H]2[C@H](Cc3ccccc3)NC(=O)[C@]23[C@H](OC(C)=O)/C=C/[C@@](C)(O)C(=O)[C@@H](C)C/C=C/[C@H]3[C@@H]1O [Cytochalasin D] | effectively altered | did not alter | No difference | – | – | – | – | – | – | – | – |
| COC(=O)Nc1nc2ccc(C(=O)c3cccs3)cc2[nH]1 [nocodazole] | effectively altered | did not alter | no difference | – | – | – | – | – | – | – | – |
| plasmin: plasmin from human plasma (Athens Research and Technology), enzyme that degrades fibrin (protein, UniProt P00747 20-580; P00747 581-810, looked up, plasmin, plasmin from human plasma (Athens Research and Technology), enzyme that degrades fibrin) Plasmin heavy chain A: EPLDDYVNTQGASLFSVTKKQLGAGSIEECAAKCEEDEEFTCRAFQYHSKEQQCVIMAENRKSSIIIRMRDVVLFEKKVYLSECKTGNGKNYRGTMSKTKNGITCQKWSSTSPHRPRFSPATHPSEGLEENYCRNPDNDPQGPWCYTTDPEKRYDYCDILECEEECMHCSGENYDGKISKTMSGLECQAWDSQSPHAHGYIPSKFPNKNLKKNYCRNPDRELRPWCFTTDPNKRWELCDIPRCTTPPPSSGPTYQCLKGTGENYRGNVAVTVSGHTCQHWSAQTPHTHNRTPENFPCKNLDENYCRNPDGKRAPWCHTTNSQVRWEYCKIPSCDSSPVSTEQLAPTAPPELTPVVQDCYHGDGQSYRGTSSTTTTGKKCQSWSSMTPHRHQKTPENYPNAGLTMNYCRNPDADKGPWCFTTDPSVRWEYCNLKKCSGTEASVVAPPPVVLLPDVETPSEEDCMFGNGKGYRGKRATTVTGTPCQDWAAQEPHRHSIFTPETNPRAGLEKNYCRNPDGDVGGPWCYTTNPRKLYDYCDVPQCAAPSFDCGKPQVEPKKCPGR Plasmin light chain B: VVGGCVAHPHSWPWQVSLRTRFGMHFCGGTLISPEWVLTAAHCLEKSPRPSSYKVILGAHQEVNLEPHVQEIEVSRLFLEPTRKDIALLKLSSPAVITDKVIPACLPSPNYVVADRTECFITGWGETQGTFGAGLLKEAQLPVIENKVCNRYEFLNGRVQSTELCAGHLAGGTDSCQGDSGGPLVCFEKDKYILQGVTSWGLGCARPNKPGVYVRVSRFVTWIEGVMRNN | – | – | – | ~24 | ~12 | ~6 | about 1 hrs | poor cell viability | poor cell viability | 80.6±4.3 | 65.2±1.8 |
